Experimental data taken from US20220251194A1 (Merck Sharp & Dohme, published 2022).

Legend:
human LAG-3 (60AXE) = target: T1, human LAG-3 (60AXE) (human, UniProt P18627 23-450, limits assumed); test: SPR (Biacore T200 or 4000), antibody captured via anti-human Fc, antigen as analyte
T1 construct: Lot 60AXE is not described further
T1 sequence (looked up): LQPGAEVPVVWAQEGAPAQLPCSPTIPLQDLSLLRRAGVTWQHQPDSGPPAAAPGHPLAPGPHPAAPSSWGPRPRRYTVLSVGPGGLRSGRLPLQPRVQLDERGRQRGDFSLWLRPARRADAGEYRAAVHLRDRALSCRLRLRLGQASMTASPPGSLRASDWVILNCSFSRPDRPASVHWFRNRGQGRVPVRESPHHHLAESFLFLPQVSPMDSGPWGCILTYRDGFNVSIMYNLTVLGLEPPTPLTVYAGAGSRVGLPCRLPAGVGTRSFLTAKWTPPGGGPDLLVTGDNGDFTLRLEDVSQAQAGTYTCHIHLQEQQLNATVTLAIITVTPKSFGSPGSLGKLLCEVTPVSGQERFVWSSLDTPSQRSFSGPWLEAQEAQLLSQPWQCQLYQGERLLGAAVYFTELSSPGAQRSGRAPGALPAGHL
Protocol: (§1) Binding affinities were measured using a Biacore T200 or Biacore 4000 biosensor (GE Healthcare, Chicago, Ill.). The following running buffer, 10 mM HEPES, 150 mM NaCl, 0.05% v/v Surfactant P20, 3 mM EDTA (GE Healthcare, BR100669, Chicago, Ill.), was used for immobilization, sample dilution and data collection. All experiments were performed at 25° C. Antigen binding to antibodies captured via an anti-human Fc antibody was measured using a Series S Sensor Chip CM5 (GE Healthcare, 29149603, Chicago, Ill.). An anti-human Fc antibody was immobilized on all surfaces of the chip according to the instructions in the Human Antibody Capture Kit (GE Healthcare, BR100839, Chicago, Ill.) and the Amine Coupling Kit (GE Healthcare, BR100633, Chicago, Ill.). […] After the antigen injections the dissociation of the interaction was monitored for 15 minutes. Between binding cycles the antibody and antigen were removed from the chip with a 30 second injection of 3 M MgCl₂.
(§2) The data were processed and fit using Biacore T200 Evaluation Software version 2.0 or Biacore 4000 Evaluation Software version 1.1 (GE Healthcare, Chicago, Ill.). The data were “double referenced” by subtracting the response from a negative control flowcell and subtracting the response from a buffer injection or the average response from two buffer injections. The data were then fit with the ‘1:1 Binding’ model to determine the association rate constant, kₐ (M⁻¹s⁻¹, where “M” equals molar and “s” equals seconds) and the dissociation rate constant, kd (s⁻¹). These rate constants were used to calculate the equilibrium dissociation constant, KD (M)=[…].

human TIGIT (94AGV) = target: T2, human TIGIT (94AGV) (human, UniProt Q495A1 22-141, limits assumed); test: as above
T2 construct: Lot 94AGV is not described further
T2 sequence (looked up): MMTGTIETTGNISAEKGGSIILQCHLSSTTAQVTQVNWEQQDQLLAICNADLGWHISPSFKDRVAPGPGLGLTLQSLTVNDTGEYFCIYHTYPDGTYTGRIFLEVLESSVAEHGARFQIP
Protocol: as §1, §2

[1] = target: T3, Human PD1 (50AFR), [VEGF leader]-Sino-Bio-PD-1_H-[His9G] (human, UniProt Q15116 25-167); test: as above
T3 construct: Expressed with a VEGF leader; also called PD-1-His (50AFR)
Protocol: as §1, §2

[2] = target: T3, Human PD1 (50AFR), [VEGF …; test: SPR sequential antigen injections on captured TsAb; this antigen injected 2nd
Protocol: (§3) Sample pre-mixes were injected to cover all six sequential combinations of the three antigens. Injection of pre-mixes in appropriate order (e.g., pre-mix 1->4->7, premix 2->6->7, premix 3->5->7) helped to maintain antigen activities from first and second injections and near saturation of the occupied sites in case of notable dissociation. On a Biacore T200, the first two injections were made using the dual inject mode and the third was made using normal injection mode (the difference is extra time between second and third injections). It is possible that antigens themselves could self-associate or interact with one another in the pre-mixes but for simplicity of interpretation, we assumed that to be unlikely or insignificant.
(§4) Each subsequent upward shift in the signal upon premix injection indicates binding of an antigen to an unoccupied site. Typical % BC for a fully occupied site can range from ˜70% to ˜120% due to matrix effects, MW variations (e.g., glycosylation), fast dissociation, nonspecific binding, reagent quality (e.g., aggregation), etc. The % BC indicated in the figures show good overall binding capacity for the three antigens with somewhat higher % BC for the first binder.

[3] = target: T4, TIGIT-His (87AGX), [SLAM Leader]-TIGIT_H-[His9G] (human, UniProt Q495A1 22-141); test: as above
T4 construct: Expressed with a SLAM leader
T4 sequence (looked up): T2 sequence (looked up)
Protocol: as §3, §4

[4] = target: T5, LAG3-His (66AKO), [VEGF leader]-LAG3_H-[His9G] (human, UniProt P18627 23-450); test: SPR sequential antigen injections on captured TsAb; this antigen injected 1st
T5 construct: Expressed with a VEGF leader
T5 sequence (looked up): T1 sequence (looked up)
Protocol: as §3, §4

T3 sequence (Q15116 25-167): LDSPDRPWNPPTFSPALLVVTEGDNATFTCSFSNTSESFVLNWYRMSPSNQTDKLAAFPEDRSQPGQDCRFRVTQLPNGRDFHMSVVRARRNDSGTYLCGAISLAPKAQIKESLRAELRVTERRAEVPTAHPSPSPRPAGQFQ

Kd (human LAG-3 (60AXE)): 0.0015 nM | Kd (human TIGIT (94AGV)): 0.64 nM | Kd [1]: 0.15 nM | % BC (estimated % binding capacity) [2]: 74% | % BC (estimated % binding capacity) [3]: 90% | % BC (estimated % binding capacity) [4]: 102%
B1: Anti-PD-1/LAG-3/TIGIT trispecific antibody (TsAb) (Lot 83BCN or 51AVW) (other)
heavy 1: EVQLVQSGAEVKKPGASVKVSCKASGYTFTSYYLYWVRQAPGQGLEWIGGVNPSNAGTNFNEKFKSRVTLTVDTSISTAYMELSRLRSDDTAVYYCTRRLSHYDGGFDYWGQGTTVTVSSASTKGPSVFPLAPSSKSTSGGTAALGCEVTDYFPEPVTVSWNSGALTSGVHTFPAVLESSGLYSLLSVVTVPSSSLGTQTYICNVNHKPSNTKVDKKVEPKSCDKTHTCPPCPAPEAAGGPSVFLFPPKPKDTLMISRTPEVTCVVVSVSHEDPEVKFNWYVDGVEVHNAKTKPREEQYNSTYRVVSVLTVLHQDWLNGKEYKCKVSNKALPAPIEKTISKAKGQPREPQVYVYPPSRDELTKNQVSLTCLVKGFYPSDIAVEWESNGQPENNYKTTPPVLDSDGSFALVSKLTVDKSRWQQGNVFSCSVMHEALHNHYTQKSLSLSPGGGGSGGGSGGGSGGGSDIQMTQSPSSLSASVGDRVTITCRASEHIYSYLSWYQQKPGKVPKLLIYNAKTLAEGVPSRFSGSGSGTDFTLTISSLQPEDVATYYCQHHFGSPLTFGQGTRLEIKGGSSRSSSSGGGGSGGGGSGSEVQLVQSGAEVKKPGSSVKVSCKASGYTFSSYVMHWVRQAPGQGLEWIGYIDPYNDGAKYAQKFQGRVTLTSDKSTSTAYMELSSLRSEDTAVYYCARGGPYGWYFDVWGQGTTVTVSS
light 1: DIVMTQTPLSLSVTPGQPASISCRASKSVSTSGFSYLHWYLQKPGQPPQLLIFLSKYRSSGVPDRFSGSGSGTDFTLKISRVEAEDVGVYYCSQAYHLPLTFGQGTKLEIKRTVAAPSVFIFPPSDERLKSGTASVVCLLNNFYPREAKVQWKVDNALQSGNSQESVTEQDSKDSTYSLSSRLTLSKADYEKHKVYACEVTHQGLSSPVTKSFNRGEC
heavy 2: QMQLVQSGPEVKKPGTSVKVSCKASGYTFTDYNVDWVRQARGQRLEWIGDINPNDGGTIYAQKFQERVTITVDKSTSTAYMELSSLRSEDTAVYYCARNYRWFGAMDHWGQGTTVTVSSASTKGPSVFPLAPSSKSTSGGTAALGCLVKDYFPEPVTVSWNSGALTSGVHTFPAVLQSSGLYKLSSVVTVPSSSLGTQTYICNVNHKPSNTKVDKKVEPKSCDKTHTCPPCPAPEAAGGPSVFLFPPKPKDTLMISRTPEVTCVVVSVSHEDPEVKFNWYVDGVEVHNAKTKPREEQYNSTYRVVSVLTVLHQDWLNGKEYKCKVSNKALPAPIEKTISKAKGQPREPQVYVLPPSRDELTKNQVSLLCLVKGFYPSDIAVEWESNGQPENNYLTWPPVLDSDGSFFLYSKLTVDKSRWQQGNVFSCSVMHEALHNHYTQKSLSLSPGGGGSGGGSGGGSGGGSDIQMTQSPSSLSASVGDRVTITCRASEHIYSYLSWYQQKPGKVPKLLIYNAKTLAEGVPSRFSGSGSGTDFTLTISSLQPEDVATYYCQHHFGSPLTFGQGTRLEIKGGSSRSSSSGGGGSGGGGSGSEVQLVQSGAEVKKPGSSVKVSCKASGYTFSSYVMHWVRQAPGQGLEWIGYIDPYNDGAKYAQKFQGRVTLTSDKSTSTAYMELSSLRSEDTAVYYCARGGPYGWYFDVWGQGTTVTVSS
light 2: DIVMTQTPLSLSVTPGQPASISCKASQSLDYEGDSDMNWYLQKPGQPPQLLIYGASNLESGVPDRFSGSGSGTDFTLKISRVEAEDVGVYYCQQSTEDPRTFGGGTKVEIKRTVAAPSVFIFPPSDEELKSGTATVVCLLNNFYPREAKVQWKVDNALQSGNSQESVTEQDSKDSTYSLSSYLELSKADYEKHKVYACEVTHQGLSSPVTKSFNRGEC
notes: Trispecific heterodimeric IgG1 / kappa; It has one site for PD1, one for LAG3 and two for TIGIT; also called Hz x Hu [PD-1]; [TIGIT]; [LAG3]; TsAb; Anti-human PD1/TIGIT/LAG3 TsAb
